In patent publication US20240158494A1 (Biogen, published 2024):
Changes are numbered by the printed parent chain. Names and notes keep the numbering of the source.

B1: TfRANTIBODY-B HC-H1C/LC-L2 (C90T) hIgG1Fab′(1C) (Fab, V domains shown)
VH: QSLVESGGGVVQPGRSLRLSCAASGFSFSNSYWICWVRQAPGKGLEWVGCINTDADSTNYADSVKGRFTISKDNSKNTVYLQMNSLRAEDTAVYYCARQNNVFDPGYNLWGQGTLVTVSS
VL: ELVLTQSPSTLSASVGDRVTITCRASQNIGSNLAWYQQKPGKAPKLLIYDASKLESGVPSRFSGSGSGTEFTLTISSLQPDDFATYYCQTTVRGGAYGNAFGGGTKVEIKR
notes: also called ANTIBODY-B H1C/L2(C90T)
B2: TfRANTIBODY-B HC-H4C/LC-L2 (C90S) hIgG1Fab′(1C) (Fab, V domains shown)
VH: QSLVESGGGVVQPGRSLRLSCKASGFSFSNSYWICWVRQAPGKGLEWVGCINTDADSTNYASWARGRFTISKTSSTTVYLQMNSLRAEDTAVYYCARQNNVFDPGYNLWGPGTLVTVSS
VL: B1 VL with T90S
notes: also called ANTIBODY-B H4C/L2(C90S); H4C (C90S)/L2
B3: TfRANTIBODY-B HC-H1C/LC-L2 (C90S) hIgG1Fab′(1C) (Fab, V domains shown)
VH: B1 VH
VL: B1 VL with T90S
notes: also called ANTIBODY-B H1C/L2(C90S)
B4: TfRANTIBODY-B HC-H4C/LC-L2 (C90T) hIgG1Fab′(1C) (Fab, V domains shown)
VH: B2 VH
VL: B1 VL
notes: also called ANTIBODY-B H4C/L2(C90T); H4C (C90T)/L2
B5: chimeric ANTIBODY-A mAb (RabANTIBODY-A, bivalent huIgG1) (antibody, V domains shown)
VH: QSLEESGGGLVQPGASLTLTCKASGIDFSSSGYMCWVRQAPGKGLEWIGCIYTYSSNTYYASWAKGRFTISKTSSTTVTLQMTSLTAADTATYFCARGTYGYTGYTYTMGYFSLWGPGTLVTVSS
VL: ELDMTQTPASVEAAVGGTVTIKCQASQNINSYLAWYQQKPGQPPKLLIYRASTLASGVPSRFKGSGSGTEFTLTISDLECADAATYYCQSYYYSGSSNYNAFGGGTELEIL
notes: rabbit variable regions with a human IgG1 framework, bivalent huIgG1; also called RabAB-A
B6: chimeric ANTIBODY B mAb (RabANTIBODY-B, bivalent huIgG1) (antibody, V domains shown)
VH: QSLEESGGGLVQPEGSLTLTCKASGFSFSNSYWICWVRQAPGKGLEWIGCINTDADSTNYASWARGRFTISKTSSTTVTLQMTSLTAADTASYFCARQNNVFDPGYNLWGPGTLVTVSS
VL: ELVLTQTPASVSEAVGGTVTIKCQASQNIGSNLAWYQQKPGQPPKLLIYDASKLASGVPSRFSGSGSGTEFTLTISDLECADAATYYCQCTVRGGAYGNAFGGGTEVVVK
notes: rabbit variable regions with a human IgG1 framework, bivalent huIgG1; also called rabAB-B
B7: TfR1 ANTIBODY-B HC-H4C hIgG1 Fab′(1C)/LC-L2 hKappa (Fab, V domains shown)
VH: B2 VH
VL: B1 VL with T90C
notes: also called ANTIBODY-B H4C/L2; exemplary construct (v)
B8: TfR1 ANTIBODY-B HC-H1C hIgG1 Fab′(1C)/LC-L2 hKappa (Fab, V domains shown)
VH: B1 VH
VL: B1 VL with T90C
notes: also called ANTIBODY-B H1C/L2; TfRANTIBODY-B HC-H1C/LC-L2 hIgG1Fab′(1C)
B9: TfR1 ANTIBODY-B HC-H4 hIgG1 Fab′(1C)/LC-L2 hKappa (Fab, V domains shown)
VH: B2 VH with C35A, G49A, C50A
VL: B1 VL with T90C
notes: also called ANTIBODY-B H4/L2
B10: TfR1 ANTIBODY-B HC-H3C hIgG1 Fab′(1C)/LC-L2 hKappa (Fab, V domains shown)
VH: B1 VH with D62S, S63W, V64A, K65R, V79L
VL: B1 VL with T90C
notes: also called ANTIBODY-B H3C/L2; TfRANTIBODY-B HC-H3C/LC-L2 hIgG1Fab′(1C)
B11: TfR1 ANTIBODY-B HC-H2C hIgG1 Fab′(1C)/LC-L2 hKappa (Fab, V domains shown)
VH: B2 VH with S62D, W63S, A64V, R65K, T73D, P111Q
VL: B1 VL with T90C
notes: also called ANTIBODY-B H2C/L2
B12: TfR1 ANTIBODY-A HC-H2C hIgG4Fab/LC-L0 hKappa (ΔC214) (Fab, V domains shown)
VH: QSLVESGGGLVQPGGSLRLSCAASGIDFSSSGYMCWVRQAPGKGLEWVGCIYTYSSNTYYAASVKGRFTISKTSSTTVYLQMNSLKTEDTAVYYCARGTYGYTGYTYTMGYFSLWGQGTLVTVSS
VL: DIQMTQSPSTLSASVGDRVTITCQASQNINSYLAWYQQKPGKAPKLLIYRASSLESGVPSRFSGSGSGTEFTLTISSLQPDDFATYYCQSYYYSGSSNYNAFGGGTKVEIKR
notes: also called exemplary antibody (ii)

Molecular target: T1, human transferrin receptor 1 (TfR1), full length, expressed on cells (human, UniProt P02786 1-760)
T1 construct: also called human TfR1; huTfR
Experiment: FACS on Ba/F3 cells, purified Fab

Row | Binder | EC50
1 | B1 | 13.6 nM
2 | B2 | 7.3 nM
3 | B3 | 6.1 nM
4 | B4 | 5.1 nM

Molecular target: T2, cynomolgus monkey transferrin receptor 1 (TfR1), full length, expressed on cells (cynomolgus monkey, UniProt Q5RDH6 1-760 (Pongo abelii entry))
T2 construct: also called cyno TfR1; cyTfR
Experiment: FACS on Ba/F3 cells, purified Fab

Row | Binder | EC50
5 | B1 | 3.2 nM
6 | B2 | 1.5 nM
7 | B3 | 3.2 nM
8 | B4 | 3.4 nM

Molecular target: T3, human transferrin receptor 2 (TfR2) overexpressed on BaF3 cells (human, UniProt Q9UP52 1-801)
T3 construct: whole, on cells
T3 sequence (looked up): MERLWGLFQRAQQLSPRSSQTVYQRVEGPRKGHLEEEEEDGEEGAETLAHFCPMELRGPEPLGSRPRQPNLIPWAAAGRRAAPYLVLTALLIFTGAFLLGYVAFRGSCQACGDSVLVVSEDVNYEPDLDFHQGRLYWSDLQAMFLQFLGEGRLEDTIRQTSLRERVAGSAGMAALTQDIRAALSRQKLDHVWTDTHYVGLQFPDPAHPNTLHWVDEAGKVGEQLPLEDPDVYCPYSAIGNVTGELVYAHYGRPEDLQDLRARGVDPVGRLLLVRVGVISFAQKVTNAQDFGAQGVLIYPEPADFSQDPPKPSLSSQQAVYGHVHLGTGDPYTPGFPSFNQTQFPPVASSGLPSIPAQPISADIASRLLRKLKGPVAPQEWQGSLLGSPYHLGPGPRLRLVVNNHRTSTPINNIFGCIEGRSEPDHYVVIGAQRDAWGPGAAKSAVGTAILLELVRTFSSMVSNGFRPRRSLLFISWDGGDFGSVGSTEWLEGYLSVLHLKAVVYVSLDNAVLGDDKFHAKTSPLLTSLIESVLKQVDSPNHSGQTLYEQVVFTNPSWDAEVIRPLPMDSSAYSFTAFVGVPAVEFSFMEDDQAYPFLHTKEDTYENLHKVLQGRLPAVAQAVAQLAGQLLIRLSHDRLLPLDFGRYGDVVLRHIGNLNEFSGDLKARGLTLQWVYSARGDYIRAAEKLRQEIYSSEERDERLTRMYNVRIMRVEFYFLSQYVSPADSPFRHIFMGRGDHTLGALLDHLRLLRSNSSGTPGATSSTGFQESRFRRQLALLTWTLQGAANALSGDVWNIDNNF
Experiment: FACS on BaF3 cells overexpressing human TfR2

Row | Binder | binding result
9 | B5 | no binding (tested: 250 nM)
10 | B6 | no binding (tested: 250 nM)

Molecular target: T4, recombinant cynomolgus monkey TfR1 extracellular domain, His-tagged (cynomolgus monkey, UniProt Q5RDH6 87-760 (Pongo abelii entry))
T4 construct: also called Cyno TfR1 ECD; cyno TfR1 ECD-His
Experiment: SPR, TfR1 ECD-His captured, Fab injected, 1:1 fit

Row | Binder | Kd | koff | kon
11 | B7 | 0.7 nM | 0.000279 s⁻¹ | 398000 M⁻¹ s⁻¹
12 | B8 | 1.3 nM | 0.000425 s⁻¹ | 315000 M⁻¹ s⁻¹
13 | B9 | 2.2 nM | 0.000508 s⁻¹ | 228000 M⁻¹ s⁻¹
14 | B10 | 1.7 nM | 0.000608 s⁻¹ | 348000 M⁻¹ s⁻¹
15 | B11 | 1.1 nM | 0.000472 s⁻¹ | 445000 M⁻¹ s⁻¹

Molecular target: T5, recombinant human TfR1 extracellular domain, His-tagged (human, UniProt P02786 89-760)
T5 construct: also called Human TfR1 ECD; human TfR1 ECD-His
Experiment: SPR, TfR1 ECD-His captured, Fab injected, 1:1 fit

Row | Binder | Kd | koff | kon
16 | B7 | 3.4 nM | 0.000767 s⁻¹ | 223000 M⁻¹ s⁻¹
17 | B8 | 6.7 nM | 0.00115 s⁻¹ | 171000 M⁻¹ s⁻¹
18 | B9 | 11.6 nM | 0.00155 s⁻¹ | 134000 M⁻¹ s⁻¹
19 | B10 | 7.4 nM | 0.00147 s⁻¹ | 200000 M⁻¹ s⁻¹
20 | B11 | 5.8 nM | 0.000999 s⁻¹ | 170000 M⁻¹ s⁻¹

Molecular target: T1, human transferrin receptor 1 (TfR1), …
Experiment: FACS on Ba/F3 cells, Fab supernatant

Row | Binder | EC50
21 | B8 | 10.1 nM

Molecular target: T2, cynomolgus monkey transferrin receptor …
Experiment: FACS on Ba/F3 cells, Fab supernatant

Row | Binder | EC50
22 | B8 | 2.8 nM

Molecular target: T1, human transferrin receptor 1 (TfR1), …
Experiment: FACS on Ba/F3 cells, Fab supernatant
Remark: another data set of the same source

Row | Binder | EC50
23 | B7 | 4.7 nM
24 | B8 | 3.8 nM
25 | B9 | 2.3 nM
26 | B10 | 6.8 nM
27 | B11 | 3.3 nM

Molecular target: T2, cynomolgus monkey transferrin receptor …
Experiment: FACS on Ba/F3 cells, Fab supernatant
Remark: another data set of the same source

Row | Binder | EC50
28 | B7 | 2.9 nM
29 | B8 | 2.8 nM
30 | B9 | 4.6 nM
31 | B10 | 2.6 nM
32 | B11 | 2.2 nM

Molecular target: T1, human transferrin receptor 1 (TfR1), …
Experiment: FACS on Ba/F3 cells, purified Fab
Remark: another data set of the same source

Row | Binder | EC50
33 | B7 | 4.8 nM
34 | B8 | 8.2 nM
35 | B9 | 9.8 nM
36 | B10 | 5.5 nM
37 | B11 | 6.5 nM

Molecular target: T2, cynomolgus monkey transferrin receptor …
Experiment: FACS on Ba/F3 cells, purified Fab
Remark: another data set of the same source

Row | Binder | EC50
38 | B7 | 2 nM
39 | B8 | 2.3 nM
40 | B9 | 3.4 nM
41 | B10 | 1.9 nM
42 | B11 | 2.6 nM

Molecular target: T1, human transferrin receptor 1 (TfR1), …
Experiment: FACS on Ba/F3 cells, Fab supernatant
Remark: another data set of the same source

Row | Binder | EC50
43 | B7 | 5.4 nM
44 | B8 | 5.9 nM
45 | B1 | 12.6 nM
46 | B2 | 11.3 nM
47 | B10 | 7 nM
48 | B3 | 14.9 nM
49 | B4 | 7.7 nM

Molecular target: T2, cynomolgus monkey transferrin receptor …
Experiment: FACS on Ba/F3 cells, Fab supernatant
Remark: another data set of the same source

Row | Binder | EC50
50 | B7 | 1.9 nM
51 | B8 | 2.3 nM
52 | B1 | 5.4 nM
53 | B2 | 3.3 nM
54 | B10 | 4 nM
55 | B3 | 4.4 nM
56 | B4 | 2.9 nM

Molecular target: T6, mouse transferrin receptor (TfR1) (mouse, UniProt Q62351 1-763, limits assumed)
T6 construct: form and assay not described; also called mouse TfR
Experiment: not described

Row | Binder | binding result
57 | B12 | no binding
